# Laboratory results published in patent US9120862.
# How the values were obtained:
# [1] = biological target: PIVKA-II antigen (Protein Induced by Vitamin K Absence II; decarboxylated prothrombin) (human) (UniProt P00734); assay: … sandwich chemiluminescent immunoassay, 3C10 microparticles capture, conjugate detects; calibrator D, 750 mAU/mL PIVKA; mean of 5
# [2] = biological target: PIVKA-II antigen (Protein Induced by Vitamin K Absence II; decarboxylated prothrombin) (human) (UniProt P00734); assay: … sandwich chemiluminescent immunoassay, 3C10 microparticles capture, conjugate detects; calibrator C, 100 mAU/mL PIVKA; mean of 5
# [3] = biological target: PIVKA-II antigen (Protein Induced by Vitamin K Absence II; decarboxylated prothrombin) (human) (UniProt P00734); assay: … sandwich chemiluminescent immunoassay, 3C10 microparticles capture, conjugate detects; calibrator A, 0 mAU/mL PIVKA (blank); mean of 5
# [4] = biological target: PIVKA-II antigen (Protein Induced by Vitamin K Absence II; decarboxylated prothrombin) (human) (UniProt P00734); assay: … sandwich chemiluminescent immunoassay, 3C10 microparticles capture, conjugate detects; calibrator F, 30000 mAU/mL PIVKA; mean of 5
# [5] = biological target: PIVKA-II antigen (Protein Induced by Vitamin K Absence II; decarboxylated prothrombin) (human) (UniProt P00734); assay: … sandwich chemiluminescent immunoassay, 3C10 microparticles capture, conjugate detects; calibrator B, 20 mAU/mL PIVKA; mean of 5
# [6] = biological target: PIVKA-II antigen (Protein Induced by Vitamin K Absence II; decarboxylated prothrombin) (human) (UniProt P00734); assay: … sandwich chemiluminescent immunoassay, 3C10 microparticles capture, conjugate detects; calibrator E, 7500 mAU/mL PIVKA; mean of 5
substance,measurement,setting,value
"control conjugate that reacts to human prothrombin (Abbott Japan, Tokyo, Japan) (antibody)",RLU,[1],19000 RLU
same,RLU,[2],2600 RLU
same,RLU,[3],190 RLU
same,RLU,[4],871000 RLU
same,RLU,[5],683 RLU
same,RLU,[6],204000 RLU
